Series [1] concerns DU4475/A549 xenograft model. The experiment in a line: in vivo. The following applies: mouse. The text has this:
(§1) For in vivo experiments, at least 8-week-old female athymic NMRI-Foxn1^nu /Foxn1^nu mice (Janvier Labs, Saint-Berthevin, France) were used. Animal care followed institutional guidelines and all experiments were approved by local animal research authorities. For the generation of tumor xenografts, 5 x 10^6 cells of both DU4475 and A549 cells were inoculated subcutaneously into the right and left shoulder, respectively (1:1 phosphate-buffered saline [PBS]/Matrigel Basement Membrane Matrix High Concentration, Corning, Corning, USA). Part of the animals received SW13 lung cancer cells as a CMKLR1-negative control tumor. For the analysis of biodistribution, only data of […] and A549 xenograft tumors are used. Tumors were allowed to grow for two to four weeks (tumor volume > 100 mm^3) after cell inoculation.
(§2) Radiolabeling of peptide-DOTA conjugates was carried out manually using ^177Lu from ITG Isotope Technologies Garching GmbH (Garching, Germany). A total of 50 µL (stock solution of peptide at 1 µg/µL in 10% DMSO in water) was added to 200 µL of acetate buffer (sodium acetate/acetic acid buffer, 0.4 M, pH 5.0) and 120 µL of gentisic solution prepared by dissolving 50 mg of gentisic acid in 1 mL of acetate buffer. The resulting mixture was then added to 35 µL of ^177Lu (1 GBq in aqueous 0.04 M HCl) and the reaction mixture was heated at 96 °C for 30 minutes followed by cooling for 10 minutes at room temperature. The product was then diluted with 5 mL of saline and used directly for animal experiments.
(§3) Tumor-bearing mice were injected with approximately 10 MBq of ^68Ga-labeled DOTA-peptide or 1 MBq of ^177Lu-labeled DOTA-peptide to the tail vein via a catheter. […] Tumor, blood, stomach, pancreas, small intestine, colon, liver, spleen, kidney, heart, lung, muscle and femur samples were weighed and uptake of radioactivity was measured by a gamma counter. To determine the effect of unlabeled ligand on the tumor uptake, 200 nmol CG34 peptide (100-fold excess) was co-injected.

A short description of the next series: in vivo. The conditions noted are these: female, athymic NMRI-Foxn1^nu/Foxn1^nu, mouse, iv, 1 MBq, total radioactivity.
Description: as §1, §2, §3

The target of series [2] is T1, huCMKLR1 (Homo sapiens, UniProt Q99788).
T1 construct: expressed in transfected cells; host or cells: HEK293a (membrane preparations)
T1 sequence (Q99788 1-373): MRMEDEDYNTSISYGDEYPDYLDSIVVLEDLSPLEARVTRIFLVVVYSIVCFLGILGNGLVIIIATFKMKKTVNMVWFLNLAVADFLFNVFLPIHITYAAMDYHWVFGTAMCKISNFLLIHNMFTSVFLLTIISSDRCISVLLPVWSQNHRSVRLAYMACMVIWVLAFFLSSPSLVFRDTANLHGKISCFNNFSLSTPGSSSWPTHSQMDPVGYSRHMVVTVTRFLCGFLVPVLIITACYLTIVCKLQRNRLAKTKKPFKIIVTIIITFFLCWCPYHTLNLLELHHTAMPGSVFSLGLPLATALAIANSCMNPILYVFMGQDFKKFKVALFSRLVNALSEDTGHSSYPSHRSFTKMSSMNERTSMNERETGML
The experiment in a line: Competitive radioligand binding with ^125I-chemerin-9, membranes of HEK293a cells stably expressing huCMKLR1 and Gα16. The following applies: unlabeled compound; radioligand ^125I-chemerin-9, 5 µg membrane, 1 h 37 °C; three independent experiments, mean ± SD; read-out: competition binding IC50 w/o ^natGa. Here is the method: (§4) For in vitro analysis, HEK293a stably transfected with huCMKLR1 and Gα16 were used. For the in vivo mouse model, the human breast cancer cell line DU4475 with endogenous CMKLR1 expression and the target-negative human lung carcinoma cell line A549 were used. All cell lines were obtained from ATCC/LGC Standards (Wesel, Germany) and were cultured in RPMI1640 medium containing 10% fetal bovine serum (both from Biochrom, Berlin, Germany) and, in case of transfected cells, selection agents G418 (Biochrom, Berlin, Germany) and zeocin (Invitrogen, Carlsbad, USA).
Competitive binding studies were performed with cell membrane preparations. […] […].
(§5) All statistical analyses were performed using GraphPad Prism 5.04. EC50/IC50 values were determined by nonlinear sigmoidal curve fitting with variable slope setting, and normalized response for competitive binding results. Multiple group comparisons were done by a two-way ANOVA and Bonferroni post hoc test. All presented data are based on independent experiments. Normalizations and statistics are further defined in each figure legend.

The target in series [3] is T1, huCMKLR1. As to the kind of experiment: Calcium mobilization assay. It counts as cell-based. The following applies: HEK293a huCMKLR1 Gα16 cells, Fluo-4 AM; three independent experiments, mean ± SD; read-out: Ca^2+ assay EC50. On the procedure:
as §4
Optical ViewPlate 96-well microplates (PerkinElmer, Waltham, USA) were coated with poly-D-lysine (10 µg/mL, 50 µL/well) for 30 minutes at 37 °C, washed with PBS and air dried before seeding 40,000 HEK293a huCMKLR1 Gα16 cells per well. The next day, cells were starved with serum-free medium for 30 minutes and incubated with loading medium consisting of serum-free medium with 2.5 mM probenicid (Sigma-Aldrich, St. Louis, USA) and 2 µM Fluo-4 AM (Thermo Fisher Scientific, Waltham, USA). After a loading time of 45 minutes, cells were washed with 100 μL C1 buffer (130 mM NaCl, 5 mM KCl, 10 mM 4-(2-hydroxyethyl)-1-piperazineethanesulfonic acid [HEPES], 2 mM CaCl2, 10 mM glucose) followed by 20 minutes of incubation in the dark. After another washing and incubation cycle, the cell plate was placed into the CellLux Calcium Imaging System (PerkinElmer, Waltham, USA) and the assay was performed automatically according to the following protocol. After a baseline measurement for 30 seconds, the ligands (prepared in C1 buffer with 0.5% BSA in double concentration and pipetted in a U-bottom plate) were added on top of the cells and the fluorescence intensity was recorded for further 60 seconds. Obtained raw data were analyzed using AssayPro (PerkinElmer, Waltham, USA). After spatial uniformity correction, maximum response values (F) were normalized to baseline values (F0) of each well using the following equation:
response = ΔF/F0 = (F - F0)/F0.
as §5
Background: Calcium flux is commonly read through the fluorescence of an indicator in the cells.

Series [4] in a line: Determination of LogD7.4 values. The following applies: shake-flask octanol/PBS pH 7.4; 3 µL of 1 mM solution, 300 µL per phase, vortex 1 min, centrifuged 5 min 10,000 x g; HPLC peak area octanol/buffer, both phases analysed. It counts as physicochemical. On the procedure: Compounds (3 µL of a 1 mM solution) were diluted into 300 µL PBS pH 7.4 or octanol and mixed. 300 µL of the other phase was added, followed by vigorous mixing using a vortex shaker for one minute. The two phases were centrifuged (5 min, 10,000 x g). Following separation, 25 µL aliquots were removed for HPLC analysis. LogD7.4 was calculated by taking the logarithm of the ratio of the high-performance liquid chromatography (HPLC) peak area of each compound in octanol to the corresponding peak area in buffer. Consequently, logD7.4 values were based on analysis of both aqueous and octanol fractions.

Molecules are shown by their SMILES. Values joined by “and” are separate entries in the source; they are usually repeats but may differ in a detail not shown here. Equal entries are not always repeated. *1 amine or outer side, *2 acyl side, *3 side chain or, on linkers, in order; H or OH if unused. Where a SMILES comes first, the peptide text is derived from it. [ ]: non-standard residue; d: D form. The star is where a group is joined. X1 = O=C(O)CN1CCN(CC(=O)O)CCN(CC(=O)NCCCOCCOCCOCCCN*)CCN(CC(=O)O)CC1; DOTA = O=C(O)CN1CCN(CC(=O)O)CCN(CC(=O)*)CCN(CC(=O)O)CC1; NH(CH2)9CO = O=C(CCCCCCCCCN[*:1])[*:2]; Hyp = O=C(O)[C@@H]1C[C@@H](O)CN1; Tic = O=C(O)[C@@H]1Cc2ccccc2CN1; Cha = N[C@@H](CC1CCCCC1)C(=O)O; Cit = NC(=O)NCCC[C@H](N)C(=O)O; Suc = O=C(CCC(=O)[*:2])[*:1]; Octanoyl = CCCCCCCC(=O)*; Ahx = NCCCCCC(=O)O

Experimental findings from PMC6771245, “CMKLR1-targeting peptide tracers for PET/MR imaging of breast cancer” (Theranostics, 2019) are described below.

With `C[C@@H](NC(=O)[C@H](Cc1ccccc1)NC(=O)[C@H](CCCNC(N)=O)NC(=O)CNC(=O)[C@@H]1C[C@@H](O)CN1C(=O)[C@H](CC1CCCCC1)NC(=O)[C@H](Cc1ccc(O)cc1)NC(=O)CCCCCNC(=O)CN1CCN(CC(=O)O)CCN(CC(=O)O)CCN(CC(=O)O)CC1)C(=O)N1Cc2ccccc2C[C@H]1C(=O)N[C@@H](CO)C(=O)O` [[^177Lu]Lu-DOTA-AHX-CG34, metal not drawn] ({DOTA-Ahx}-Y[Cha][Hyp]G[Cit]F[dA][Tic]S-OH), the “DU4475 uptake after 24 hours as % of the 1 h-value” in series [1] is “approx. 64%”. In addition, the “decrease of DU4475 tumor signal from one to 24 hours p.i.” value in series [1] is “approximately 36%”. Besides, the “higher uptake in DU4475 than A549” value in series [1] was found to be 1.4 fold. The tissue uptake at 1 h was 2.3 %ID/g in “in vivo” (A549 tumor uptake); 3.3 %ID/g in the series “in vivo” (DU4475 tumor uptake); 4.7 %ID/g in “in vivo” (kidneys uptake); 5.6 %ID/g in the series “in vivo” (lung uptake); 5.8 %ID/g in the series “in vivo” (spleen uptake). Further, the tissue uptake at 24 h in the series “in vivo” (A549 tumor uptake) was 0.4 %ID/g; in “in vivo” (DU4475 tumor uptake) it was 2.1 %ID/g; in the series “in vivo” (kidneys uptake), 1 %ID/g; in the series “in vivo” (spleen uptake), 1.7 %ID/g.

Consider `CSCC[C@H](NC(=O)CNC(=O)[C@@H]1CCCN1C(=O)[C@H](CC1CCCCC1)NC(=O)[C@H](Cc1ccc(O)cc1)NC(=O)CCCCCNC(=O)CN1CCN(CC(=O)O)CCN(CC(=O)O)CCN(CC(=O)O)CC1)C(=O)N[C@@H](Cc1ccc(O)cc1)C(=O)N[C@@H](C)C(=O)N[C@@H](Cc1ccccc1)C(=O)N[C@H](Cc1ccccc1)C(=O)O` [DOTA-AHX-CG36] ({DOTA-Ahx}-Y[Cha]PGMYAF[dF]-OH), for which the IC50 at huCMKLR1 [2] was found to be 0.13 ± 0.08 nM. Further, the EC50 at huCMKLR1 [3] amounted to 1.53 nM. This compound also registered a logD in series [4] of 2.27 ± 0.47.

Regarding `C[C@@H](NC(=O)[C@H](Cc1ccccc1)NC(=O)[C@H](CCCNC(N)=O)NC(=O)CNC(=O)[C@@H]1C[C@@H](O)CN1C(=O)[C@H](CC1CCCCC1)NC(=O)[C@H](Cc1ccc(O)cc1)NC(=O)CCCCCNC(=O)CN1CCN(CC(=O)O)CCN(CC(=O)O)CCN(CC(=O)O)CC1)C(=O)N1Cc2ccccc2C[C@H]1C(=O)N[C@@H](CO)C(=O)O` [DOTA-AHX-CG34] ({DOTA-Ahx}-Y[Cha][Hyp]G[Cit]F[dA][Tic]S-OH), the IC50 at huCMKLR1 [2] turned out to be 1.05 ± 0.81 nM. Further, at huCMKLR1 [3], the EC50 amounted to 0.79 ± 0.28 nM. The logD in series [4] was -0.96 ± 0.2.

`C[C@@H](NC(=O)[C@H](Cc1ccccc1)NC(=O)[C@H](CCCNC(N)=O)NC(=O)CNC(=O)[C@@H]1C[C@@H](O)CN1C(=O)[C@H](CC1CCCCC1)NC(=O)[C@H](Cc1ccc(O)cc1)NC(=O)CCCCCCCCCNC(=O)CN1CCN(CC(=O)O)CCN(CC(=O)O)CCN(CC(=O)O)CC1)C(=O)N1Cc2ccccc2C[C@H]1C(=O)N[C@@H](CO)C(=O)O` [DOTA-ADX-CG34] ({DOTA}-[NH(CH2)9CO]Y[Cha][Hyp]G[Cit]F[dA][Tic]S-OH): the IC50 at huCMKLR1 [2] is 0.65 ± 0.15 nM. Also, on huCMKLR1 [3], the half-maximal effective concentration (EC50) was determined as 0.65 ± 0.1 nM. In series [4], this compound registered a logD of 1.35 ± 0.31.

Take `CCCCCCCC(=O)NCCCC[C@H](NC(=O)CN1CCN(CC(=O)O)CCN(CC(=O)O)CCN(CC(=O)O)CC1)C(=O)N[C@@H](Cc1ccc(O)cc1)C(=O)N[C@@H](CC1CCCCC1)C(=O)N1C[C@H](O)C[C@H]1C(=O)NCC(=O)N[C@@H](CCCNC(N)=O)C(=O)N[C@@H](Cc1ccccc1)C(=O)N[C@H](C)C(=O)N1Cc2ccccc2C[C@H]1C(=O)N[C@@H](CO)C(=O)O` [DOTA-KCap-CG34] ({DOTA}-K(Octanoyl)Y[Cha][Hyp]G[Cit]F[dA][Tic]S-OH): the IC50 at huCMKLR1 [2] is 0.44 ± 0.16 nM. In addition, at huCMKLR1 [3], the EC50 was 1.34 ± 0.14 nM. Also, the logD in series [4] came out at 1.29 ± 0.68.

For `C[C@@H](NC(=O)[C@H](Cc1ccccc1)NC(=O)[C@H](CCCNC(N)=O)NC(=O)CNC(=O)[C@@H]1C[C@@H](O)CN1C(=O)[C@H](CC1CCCCC1)NC(=O)[C@H](Cc1ccc(O)cc1)NC(=O)CCC(=O)NCCCOCCOCCOCCCNC(=O)CN1CCN(CC(=O)O)CCN(CC(=O)O)CCN(CC(=O)O)CC1)C(=O)N1Cc2ccccc2C[C@H]1C(=O)N[C@@H](CO)C(=O)O` [DOTA-TTDS-CG34] ({X1-Suc}-Y[Cha][Hyp]G[Cit]F[dA][Tic]S-OH), the IC50 on huCMKLR1 [2] is 0.66 nM and ~0.6 nM. The logD in series [4] was -1.01 ± 0.39.

For orientation: tissue uptake means the percentage of the injected dose found per gram of tissue. By EC50 is commonly meant the concentration at which the effect is half-maximal. One may read the logD as lipophilicity at a set pH, counting ionised and neutral species. Low readings indicate a more hydrophilic compound, high ones a more lipophilic compound.
